Reference: paper PMC7793685
Substitutions are numbered along the chain they refer to.

Columns and labels:
[1] = tested on: T1, MBP-MogRQN→AA Q119A;N120A (Bacillus thuringiensis 407), ORF:ee0ae10c; assay: EMSA
T1 sequence: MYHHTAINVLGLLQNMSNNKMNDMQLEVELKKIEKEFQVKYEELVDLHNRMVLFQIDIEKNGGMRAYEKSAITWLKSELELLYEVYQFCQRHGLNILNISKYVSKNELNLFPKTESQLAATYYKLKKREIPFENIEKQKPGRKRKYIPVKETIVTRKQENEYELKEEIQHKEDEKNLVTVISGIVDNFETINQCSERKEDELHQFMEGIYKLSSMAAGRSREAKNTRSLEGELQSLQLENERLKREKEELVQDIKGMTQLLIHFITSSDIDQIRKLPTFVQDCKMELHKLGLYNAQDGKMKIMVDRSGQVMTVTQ

[2] = tested on: T2, MBP-MogR (Bacillus thuringiensis 407), ORF:ee0ae10c; assay: EMSA
T2 sequence: T1 sequence with A119Q, A120N

| Sequence | binding [1] | binding [2] |
| --- | --- | --- |
| CAACTATCATAATATCACCTTTTCGGTAAACAAAGATAATCTAATATTAGAGTTTTTTTTTAAAGTTTGCAATAATCCTTTTAATAATTATGTAATAAAAAATGAATATATTGTTAAACTGTTATTTTTTTATATTTATTAATTCGAATTTTTAGTTGACACCCG (double strand) [fla promoter fragment] | no binding | binds |
| TTACAGAAATGAAATTTACGGATAACTATATTTATATAATTTTTTCGGTTCATATTTTTATTTAACAGTAAATTATCGATCGTAATCGACAAAATTTTTCTATTTACGCATTAAAAATTTAATGTTTTAATGAACAACATAACTGGTATGACCAGACAGAAAGGATAAGG (double strand) [hbl promoter fragment] |  | binds |
